Assay results taken from US20210054097A1.
Each block holds one binder with its values, some of them ahead of it.

Legend:
Test in all cases: peptide ELISA
[1] = target: T1, FX activation peptide 12-mer … (human)
T1 sequence (peptide, C-terminally conjugated to biotin): FDLLDFNQTQPE

[2] = target: T2, FX activation peptide 12-mer … (human); remark: listed apart in the source
T2 sequence (peptide, C-terminally conjugated to biotin): DAADLDPTENPF

[3] = target: T3, FX activation peptide 12-mer … (human); remark: listed apart in the source
T3 sequence (peptide, C-terminally conjugated to biotin): EAPDSITWKPYD

[4] = target: T4, FX activation peptide 12-mer … (human); remark: listed apart in the source
T4 sequence (peptide, C-terminally conjugated to biotin): SGEAPDSITWKP

[5] = target: T5, FX activation peptide 12-mer … (human); remark: listed apart in the source
T5 sequence (peptide, C-terminally conjugated to biotin): ITWKPYDAADLD

[6] = target: T6, FX activation peptide 12-mer … (human); remark: listed apart in the source
T6 sequence (peptide, C-terminally conjugated to biotin): FNQTQPERGDNN

[7] = target: T7, FX activation peptide 12-mer … (human); remark: listed apart in the source
T7 sequence (peptide, C-terminally conjugated to biotin): PFDLLDFNQTQP

[8] = target: T8, FX activation peptide 12-mer … (human); remark: listed apart in the source
T8 sequence (peptide, C-terminally conjugated to biotin): DPTENPFDLLDF

[9] = target: T9, FX activation peptide 12-mer … (human); remark: listed apart in the source
T9 sequence (peptide, C-terminally conjugated to biotin): DSITWKPYDAAD

[10] = target: T10, FX activation peptide 12-mer … (human); remark: listed apart in the source
T10 sequence (peptide, C-terminally conjugated to biotin): YDAADLDPTENP

[11] = target: T11, FX activation peptide 12-mer … (human); remark: listed apart in the source
T11 sequence (peptide, C-terminally conjugated to biotin): NPFDLLDFNQTQ

[12] = target: T12, FX activation peptide 12-mer … (human); remark: listed apart in the source
T12 sequence (peptide, C-terminally conjugated to biotin): DLDPTENPFDLL

[13] = target: T13, FX activation peptide 12-mer … (human); remark: listed apart in the source
T13 sequence (peptide, C-terminally conjugated to biotin): PYDAADLDPTEN

[14] = target: T14, FX activation peptide 12-mer … (human); remark: listed apart in the source
T14 sequence (peptide, C-terminally conjugated to biotin): VAQATSSSGEAP

[15] = target: T15, FX activation peptide 12-mer … (human); remark: listed apart in the source
T15 sequence (peptide, C-terminally conjugated to biotin): APDSITWKPYDA

[16] = target: T16, FX activation peptide 12-mer … (human); remark: listed apart in the source
T16 sequence (peptide, C-terminally conjugated to biotin): ENPFDLLDFNQT

[17] = target: T17, FX activation peptide 12-mer … (human); remark: listed apart in the source
T17 sequence (peptide, C-terminally conjugated to biotin): TWKPYDAADLDP

[18] = target: T18, FX activation peptide 12-mer … (human); remark: listed apart in the source
T18 sequence (peptide, C-terminally conjugated to biotin): SITWKPYDAADL

[19] = target: T19, FX activation peptide 12-mer … (human); remark: listed apart in the source
T19 sequence (peptide, C-terminally conjugated to biotin): DFNQTQPERGDN

[20] = target: T20, FX activation peptide 12-mer … (human); remark: listed apart in the source
T20 sequence (peptide, C-terminally conjugated to biotin): PDSITWKPYDAA

[21] = target: T21, FX activation peptide 12-mer … (human); remark: listed apart in the source
T21 sequence (peptide, C-terminally conjugated to biotin): DLLDFNQTQPER

[22] = target: T22, FX activation peptide 12-mer … (human); remark: listed apart in the source
T22 sequence (peptide, C-terminally conjugated to biotin): ATSSSGEAPDSI

[23] = target: T23, FX activation peptide 12-mer … (human); remark: listed apart in the source
T23 sequence (peptide, C-terminally conjugated to biotin): GEAPDSITWKPY

[24] = target: T24, FX activation peptide 12-mer … (human); remark: listed apart in the source
T24 sequence (peptide, C-terminally conjugated to biotin): LLDFNQTQPERG

[25] = target: T25, FX activation peptide 12-mer … (human); remark: listed apart in the source
T25 sequence (peptide, C-terminally conjugated to biotin): SVAQATSSSGEA

[26] = target: T26, FX activation peptide 12-mer … (human); remark: listed apart in the source
T26 sequence (peptide, C-terminally conjugated to biotin): PTENPFDLLDFN

[27] = target: T27, FX activation peptide 12-mer … (human); remark: listed apart in the source
T27 sequence (peptide, C-terminally conjugated to biotin): NQTQPERGDNNL

[28] = target: T28, FX activation peptide 12-mer … (human); remark: listed apart in the source
T28 sequence (peptide, C-terminally conjugated to biotin): TSSSGEAPDSIT

[29] = target: T29, FX activation peptide 12-mer … (human); remark: listed apart in the source
T29 sequence (peptide, C-terminally conjugated to biotin): SSGEAPDSITWK

[30] = target: T30, FX activation peptide 12-mer … (human); remark: listed apart in the source
T30 sequence (peptide, C-terminally conjugated to biotin): TENPFDLLDFNQ

[31] = target: T31, FX activation peptide 12-mer … (human); remark: listed apart in the source
T31 sequence (peptide, C-terminally conjugated to biotin): LDPTENPFDLLD

B1: Nb 721E08 (VHH, not shown: small tags and cut ends)
VHH: EVQLVESGGGVVQPGGSLRLSCAASGRTFSTYSMGWFRQAPGKEREFVAAITRRGSRTYYADSVKGRFTISRDNSKNTVYLQMNSLRPEDTALYYCAADRRPADSYLDYWGQGTLVTVSS
- ELISA signal relative to background [1]: 3.01
- ELISA signal relative to background [2]: 2.3
- ELISA signal relative to background [3]: 2.35
- ELISA signal relative to background [4]: 2.15
- ELISA signal relative to background [5]: 2.08
- ELISA signal relative to background [6]: 2.16
- ELISA signal relative to background [7]: 2.5
- ELISA signal relative to background [8]: 2.27
- ELISA signal relative to background [9]: 2.18
- ELISA signal relative to background [10]: 2.21
- ELISA signal relative to background [11]: 2.28
- ELISA signal relative to background [12]: 2.48
- ELISA signal relative to background [13]: 2.05
- ELISA signal relative to background [14]: 2.13
- ELISA signal relative to background [15]: 2.29
- ELISA signal relative to background [16]: 2.88
- ELISA signal relative to background [17]: 2.26
- ELISA signal relative to background [18]: 2.28
- ELISA signal relative to background [19]: 2.25
- ELISA signal relative to background [20]: 2.4
- ELISA signal relative to background [21]: 2.45
- ELISA signal relative to background [22]: 2.27
- ELISA signal relative to background [23]: 2.26
- ELISA signal relative to background [24]: 2.3
- ELISA signal relative to background [25]: 2.25
- ELISA signal relative to background [26]: 2.35
- ELISA signal relative to background [27]: 2.02
- ELISA signal relative to background [28]: 2.2
- ELISA signal relative to background [29]: 2.01
- ELISA signal relative to background [30]: 2.54
- ELISA signal relative to background [31]: 2.29

B2: Nb 701C06 (VHH, not shown: small tags and cut ends)
VHH: EVQLVESGGGVVQPGGSLRLSCAASGRTFSTYAMGWFRQAPGKEREFVAAISRRGGRTYYADSVKGRFTISRDNSKNTVYLQMNSLRPEDTALYYCAADATARDGLLDYWGQGTLVTVSS
- ELISA signal relative to background [1]: 1.41
- ELISA signal relative to background [7]: 1.5
- ELISA signal relative to background [8]: 1.51
- ELISA signal relative to background [11]: 1.29
- ELISA signal relative to background [16]: 1.56
- ELISA signal relative to background [26]: 1.61
- ELISA signal relative to background [30]: 1.74

B3: Nb 701D07 (VHH, not shown: small tags and cut ends)
VHH: EVQLVESGGGVVQPGGSLRLSCAASGGTLSRYAMGWFRQAPGKEREFVAAITRRGSRTYYADSVKGRFTISRDNSKNTVYLQMNSLRPEDTALYYCAADLAPGDYALDYWGQGTLVTVSS
- ELISA signal relative to background [7]: 1.13
- ELISA signal relative to background [8]: 1.39
- ELISA signal relative to background [11]: 0.96
- ELISA signal relative to background [16]: 1.27
- ELISA signal relative to background [26]: 1.29
- ELISA signal relative to background [30]: 1.44

B4: Nb 702C12 (VHH, not shown: small tags and cut ends)
VHH: EVQLVESGGGVVQPGGSLRLSCVASGRTFSRYAMGWFRQAPGKEREFVAAISRRGGSTNYADSVKGRFTISRDNSKNTVYLQMNSLRPEDTALYYCAADYSSGDGYLDYWGQGTLVTVSS
- ELISA signal relative to background [24]: 1.88

Second part, the binder after the results:

- ELISA signal relative to background [8]: 1.95
- ELISA signal relative to background [31]: 1.58
B5: Nb 729C08 (VHH, not shown: small tags and cut ends)
VHH: EVQLVESGGGVVQPGGSLRLSCAASGFTFSDYAMSWVRQAPGKGLEWVSGITGGGRTYYADSVKGRFTISRDNSKNTLYLQMNSLRPEDTALYYCAAAILTRTRRTYDYWGQGTLVTVSS

- ELISA signal relative to background [1]: 1.58
- ELISA signal relative to background [7]: 1.41
- ELISA signal relative to background [31]: 1.91
B6: Nb 729A04 (VHH, not shown: small tags and cut ends)
VHH: EVQLVESGGGVVQPGGSLRLSCAASGFTFSDYAMSWVRQAPGKGLEWVSGITSGGGRTYYADSVKGRFTISRDNSKNTLYLQMNSLRPEDTALYYCAAVRTLGLRGSYDYWGQGTLVTVSS

- ELISA signal relative to background [8]: 1.68
- ELISA signal relative to background [26]: 1.62
B7: Nb 730C03 (VHH, not shown: small tags and cut ends)
VHH: EVQLVESGGGVVQPGGSLRLSCVASGFTFSDYAMSWVRQAPGKGLEWVSGITSGSGRTYYADSVKGRFTISRDNSKNTVYLQMNSLRPEDTALYYCAAAILRGYRKTYDYWGQGTLVTVSS
